Reference: the RNAGym collection of RNA variant scans (doi:10.1021/acssynbio.7b00057)

B1: Pistol ribozyme (parent)
chain: GGGUCGUUGUUCCAUAAUCGCGUGGAUAUGGCACGCAAGUUUCUACCGGGCACCGUAAAUGUCCGACUGGAGCCGUUCGGGCGGCUAUAAACAGACCUCAGGCCCGAAGCGUGGCGGCACCUGCCGCCGGUGGUAAAAAAGAUCGGAAGAGCACACGUCU

Variants of: B1
Assay: aptazyme ON/OFF ratio, guanine; higher = stronger switching; co-transcriptional cleavage with and without guanine

Variant | aptazyme ON/OFF ratio
U7C U8G U11C C12A C13G | 1.15
U7A G9A U10G C12A C13U | 1.34
U7C U10A U11A C13G | 1.2
U7A U8C G9C U10G U11G C12U C13A | 1.07
U8C G9U C13U | 1.27
U7A U8A U10A U11A C13G | 1.18
U8C G9C U10A C12U C13G | 1.12
U7A U8A G9A U11A C12G C13G | 1.28
U7A U8A G9A U11A C12G C13A | 1.14
G9C U10A U11A C12G C13U | 1.38
U7C U8A U10G U11G C12G | 1.18
U7C U8G G9C C12A C13G | 1.09
U8C G9C U10G U11G C12A C13U | 1.08
U7G U8G G9U U10A U11C C12G | 1.19
G9A U10G C13G | 1.15
U7C G9C U10G C12U C13U | 1.17
U8G G9C U10G U11G C13U | 1.12
U8A U10C U11C | 1.01
U8G G9A U10A C12G C13A | 1.22
U7C G9C U10C U11G C12G | 1.14
U7C U8G U11G C12A C13A | 1.1
U7G U10A C12U | 1.16
U7G U8C G9C U10G U11C C12U C13A | 1.26
U8C G9C U10G U11G C13G | 1.11

Variant | aptazyme ON/OFF ratio
U7G U10G U11G | 1.53
U8G G9A U10A U11C C12G C13U | 1.36
U7C G9A U10C C12U C13G | 1.16
U7A U8G G9U C13U | 1.96
U7C U8G U11C C13U | 1.36
U7G U8G U10G U11C C12U | 1.24
U7G U8C G9A U10G C12A C13G | 1.03
U7A U10A U11G C12A C13U | 1.17
G9C U10G U11G C12U | 1.13
U8G G9A U10C C12G | 1.2
U8A G9A U10A C12U | 1.24
U7C U8C G9U U10G U11C C12U C13A | 1.12
U8C G9U U10A C12A C13U | 1.13
U7G G9C U11G C12A C13A | 1.21
U8C G9C U10G U11C C12A C13U | 1.13
U10A U11C C12A C13G | 1.28
U7A U8C U10G U11G | 1.4
U8C G9U U10A U11A C12G C13U | 1.21
U7A U8G U10G U11G C12A C13G | 1.47
U7A U8A G9A U11G C12U C13U | 1.26
U8C U11C C12U C13U | 1.33
U8C U11C C12U C13A | 1.19
U7G U8A G9A U11A C12G C13A | 1.17
U7A G9C C12U C13U | 1.1

Variant | aptazyme ON/OFF ratio
U7A U8C G9C U10A U11A C12U C13U | 1.05
U8C G9U C12A C13G | 1.12
U7A G9A U10C U11A C12U | 1.31
U8C G9A U10A U11G C12A | 1.04
U7C U8G U10G U11G | 1.63
U7A G9U U10C U11C C12A C13G | 1.06
U7C U8C G9U U10A C12U C13U | 1.19
U7A U8G U10C U11G C12A | 1.43
U7G G9U U10C U11C C12U C13U | 1.29
U7A G9U U11G C12A C13U | 1.22
U7C U8A U10C U11C C12U C13U | 1.06
U7G U8G G9A U10C U11C C12U C13G | 1.36
U7G U8A G9U U10G U11G C13U | 1.18
U7A U10C U11A C13A | 1.15
U7A U8A G9A U10C U11A | 1.22
U7G U8C U10G U11G C12A C13A | 1.09
U7C U8A G9C U11C C12U C13A | 1.11
U7G G9A U11C C13U | 1.14
U7A U8G G9C U10A U11G C12G C13G | 1.72
U7C U8G U10A U11G C12A C13A | 1.12
U7A G9C U10G U11A C12G | 1.06
U7A U8A G9U U11C C12A | 1.17
U7C U8C U10C U11C C13A | 1.31
U7C U8A G9C U10G C12U C13U | 1.26

Variant | aptazyme ON/OFF ratio
U7A U8G G9U U10G U11A C12U C13A | 1.64
U7A G9C C12G | 1.08
U7G U8C G9C U11G C12A C13A | 1.14
U8C G9U U11G C12A | 1.08
U7G U8G G9C U11C C12A C13G | 1.13
U7G U8A G9U U10C U11A C12U C13G | 1.09
U7G U8C U10C U11A C12G C13U | 1.2
U7G U8C G9A U11G | 1.3
U7A U8A U10G C13G | 1.12
U7C U8C U10C U11G C12U | 1.2
U7A U8C G9C U10G U11A C12A C13A | 1.03
U8G G9U U10A U11A C12A C13G | 1.16
U7A U8A G9U U10C U11A C12G | 1.18
U7C G9C U11A C12A C13G | 1.07
U7C G9A U10G U11A C12U | 1.05
U7C G9C U10A | 1.06
U8C U10G U11C C13G | 1.07
U7G G9U U11A | 1.42
G9C U10G U11C C12U | 1.08
U7G U8A G9C U10G U11A C12G C13U | 1.07
U7G U8A G9A U10G U11A C12A | 1.12
U8G U10A U11C C13A | 1.03
U7G U8A G9C U11C C12A C13A | 1.04
U8G G9C U10C U11C C13G | 1.01

Variant | aptazyme ON/OFF ratio
U8G G9C U10A U11G C12U C13G | 1.1
U7A U8C U10C U11A C12G C13G | 1.22
U7G U8C G9C U10G C13A | 1.3
U7A U8C G9C U10C U11C C12A C13A | 0.998
U8G G9U U10C U11C C12U C13G | 1.02
U7G U10G C12A C13G | 1.11
U11A C12A C13A | 1.59
U7C U8G U10A U11A | 2.1
U7G U8A G9C U10G U11G C12U C13U | 1.15
U7G U8A G9C U10G U11G C12U C13G | 1.03
U7A U8A G9C U10C C12U C13A | 1.02
U7A U8G G9C U11A C12A C13U | 1.47
U7G U8A G9A U10A U11G C12G C13A | 1.1
U7G U8C G9C U10A U11G C12G C13U | 1.1
U7G U8G G9C U11C C12U C13A | 1.43
U7A U8G G9A C12G | 1.79
U7C G9C U10G U11A C13U | 1.11
U7C U8A U10G U11C C12A | 1.62
U8A G9A U10A U11A C12U C13A | 1.37
U7A U8G C12G | 1.27
U8A G9A U10A U11G C12G | 1.15
U7G U8A G9U U10G C12G C13U | 1.12
U7C U8C G9U U10C U11A C12U C13G | 1.14
U7G G9U U11C C13U | 1.65

Variant | aptazyme ON/OFF ratio
U8G G9C U10G C12G C13U | 1.17
U8G G9C U10G U11G C12G C13U | 1.3
U7A U8G G9U U11G C13A | 1.28
U7A G9A U10G U11C C13U | 1.02
U7C U10C U11G C12U C13G | 1.41
U7G U8G G9C U10G U11C C12G C13A | 1.19
U7G U8G G9A U11A C12A C13G | 1.14
U7C U8C G9C U10G U11C C13U | 1.08
U7G U8A G9C U10C U11G C12U C13G | 1.03
U7C U8A U10A U11G C12A C13G | 1.17
G9U U10A U11A C12G | 1.47
U8C G9A U10G U11G C12G | 1.21
U7A U8A U11C C12U C13G | 1.21
U7A U8C G9A C12U | 1.21
U7C U8G U10C C12U | 1.38
U7C U8A G9A U10G U11C C13A | 1.05
U8G G9U U11A C12G C13G | 1.23
U8A U10C U11G C12A | 1.09
U7C U10A C12U C13A | 1.19
U7C U8A G9U U10A U11A C12U C13A | 1.2
U7A U8A G9C U11A | 1.25
U7G U8C C12A | 1.05
U8A G9C U10A C12G | 1.17
U7C U10G U11A C13G | 1.18

Variant | aptazyme ON/OFF ratio
U7C U8C G9C U10A U11C C12U C13G | 1.13
U7C U8A U10C U11G C13G | 1.1
U7C U8A G9A U10G U11C C12G | 1.21
U8G G9A U10C C12G C13U | 1.33
U7A U8C G9A U10C U11A C12A C13U | 1.19
U7A U10A C12A C13A | 1.27
U7A U8G G9C U10A C13G | 1.15
U8G U10G U11A C12A C13A | 1.18
U7C U8C G9C U10C U11A C12A C13A | 1.07
U7G G9U U10A U11G C12G C13A | 1.04
G9U U11C | 2.53
U7C U8A U10A U11A C13A | 1.17
U7C G9A U11G C12G C13G | 1.21
U7G U8G U10A C12A C13A | 1.18
U7G G9A U10C C12G | 1.38
U7C G9A U10A U11C C12U C13G | 1.05
U7A U10G U11G C12A C13G | 1.16
U7A G9U U10C U11G C12U C13G | 1.12
U8C G9A U10G U11C | 1.05
U7G G9A U10G C12G C13G | 1.12
C13G | 1.13
U8A G9U U10C C13A | 1.08
U8A G9C U10C U11A C12G C13A | 1.06
